In patent US20220396822A1, “Method for Measuring Pentosidine and Measurement Kit” (Kikkoman Corporation, priority 2019, published 2022):

How the values were obtained:
[1] = Heat stability and stable pH of PenOX2 (residual activity); conditions: treated at each temperature for 10 minutes; residual activity at 37° C., pH 7.5; FIG. 9
Procedure: 600 μL of an arbitrary buffer, 400 μL of a solution of 3.99 U/mL peroxidase, 1.8 mM 4-aminoantipyrine, and 2 mM TOOS dissolved in deionized water, and 150 μL of deionized water were incubated at an arbitrary temperature for 10 minutes. Then, 50 μL of the enzyme liquid preserved on ice and 400 μL of a solution of 2 mM pentosidine dissolved in a 100 mM potassium phosphate buffer (pH 8.0) incubated at an arbitrary temperature for 10 minutes were added thereto, and the mixture was stirred and reacted at an arbitrary temperature for 3 minutes. Time-dependent change in A555 during the reaction was measured in a spectrophotometer (U-3900, manufactured by Hitachi High-Tech Science Corp.). Time elapsed after the start of measurement—amount of change in A555 from 20 seconds to 60 seconds was regarded as an activity value.
The enzyme liquid treated at each temperature for 10 minutes was evaluated for residual activity by performing the activity measurement described above at a temperature of 37° C. using a 100 mM (final concentration) potassium phosphate buffer (final pH at the time of activity measurement: 7.5).

[2] = Method for measuring enzymatic activity (pentosidine oxidase activity, A555), Examples 9 and 10; format: biochemical
Procedure: The amount of the enzyme that produced 1 μmol of hydrogen peroxide per minute at 37° C. was defined as 1 unit (U). The activity was calculated according to the following expression.
Each buffer was prepared as a 50 mM (final concentration) citric acid-100 mM potassium phosphate buffer (pH 4.0 to 7.5), a 100 mM (final concentration) potassium phosphate buffer (pH 6.5 to 8.0), and a 100 mM (final concentration) glycine buffer (pH 8.0 to 11.0). Enzyme reaction was performed at each pH at a temperature of 37° C. using these buffers. […] It was therefore concluded that the optimum pH of PenOX2 is pH 6.5 to 8.0 and is most preferably pH 7.5.
The activity of PenOX2 was measured at varying temperatures using a 50 mM (final concentration) potassium phosphate buffer (pH 7.5). […] It was thus concluded that the range of the optimum temperature of PenOX2 is from 37° C. to 50° C.
As mentioned above, both PenOX1 and PenOX2 had pentosidine oxidase activity. When the percent match between their amino acid sequences was examined using the BLAST program, the amino acid sequence homology therebetween was 38.2%. […] The amino acid sequence homology to PenOX1 and PenOX2 and pentosidine oxidase activity of each enzyme were as follows.

[3] = Pentosidine quantification test (DA-67/peroxidase, A658); format: biochemical; conditions: 37° C., pH 7.0
Procedure: The following reagents were prepared, and pentosidine was measured using Bio Majesty JCA-BM1650 (manufactured by JEOL Ltd.).
0.2 μM, 0.4 μM, 0.6 μM, 1.0 μM, 2.0 μM or 4.0 μM pentosidine solution (prepared using the same pentosidine as in Example 2)
120 mM potassium phosphate buffer (pH 7.0)
0.2 mM DA-67 (10-(carboxymethylaminocarbonyl)-3,7-bis(dimethylamino)phenothiazine, sodium salt) (manufactured by FUJIFILM Wako Pure Chemical Corp.)
25 μL of each sample was added to 50 μL of the first reagent, and the mixture was incubated at 37° C. for 5 minutes. Then, 25 μL of the second reagent was added thereto, and pentosidine oxidation reaction mediated by PenOX2 and reaction for the detection of hydrogen peroxide produced through the reaction were allowed to proceed at 37° C. for 5 minutes.
In the reaction for the detection of hydrogen peroxide, DA-67 was oxidized, with concomitant consumption of […], into methylene blue which in turn developed color while absorbance (A658) was elevated. […] Elevation in A658 was able to be confirmed immediately after addition of the second reagent containing PenOX2.
Subsequently, the amount of elevation in A658 (ΔA) caused by the oxidation of pentosidine was calculated according to the following expression.
ΔA=(Absorbance 5 minutes after addition of the second reagent)−(Absorbance immediately before addition of the second reagent×0.75)

B1: PenOX2: protein having the amino acid sequence of SEQ ID NO: 4, pentosidine oxidase from a filamentous fungus of the genus Sarocladium (protein, listed as Sarocladium sp.)
chain: MFTPKAWIPLLALSREVFSNPTSASHSISFHGLLGVSSESVHNIHLTYGDAFPHGDFRVVFGDCGMTSEDELHHEVASLSTKMESAPDRLVWLVPKDVRENGCLHAFSEGVLLGRSEPVAFTEPLRKRESLSEIGDSDGLWFSGIRYLQSSNLTSVKAAEAKEKKIGIVGGGISGLMTSLLLTSVGMTNWHIIEATERVGGRIRTKYMNGTSPDDYQYQEMGPMRFPVEVKYNDTNETLPIQDHKMVFQLAEVLNEMNGNDTDLAVKFIPWTQNNPNTPANSRGYRLPDGRIPTAAQIAQNPSILPAAANASDPQDAELGKESLERLSDLTPERMRNISANIFKAHRDAIDRGLFHWSEAAYLRYQLGLDDDTVDFVAASDNYPMFPDWWHAVYFAATKWLTIDKGLDSLSRAFVPHVKDKITYGRKIEAMQWNESTSKISLSWRESPLAAAKSDEYDYAVVAVPFSKVRLWKRPAYSNLLTRAIGKLNYEQACKVALLYETRFWEHQEIPIFGGCGSVDIPGIGGVCYPSYEINSTRPGVILSSYITGTEARSVVALSEEDHVAMVQRAMVEVHGPMADEQWTGIYDRLCWEVDENAAGGWASPTVGQQELFIPAYHKTELNTIFIGEHTSITHGWIFSALESSVRGTTQLLLDLGLVDEAKQIVETWMARWITV
[1]
  heat stability (stable up to): around 30 °C
[2]; 50 mM potassium phosphate buffer pH 7.5, FIG. 8
  temperature at which the highest activity was exhibited: around 50 °C
[2]; 37° C., pH 7.5, Lineweaver-Burk plot, FIG. 11, read-out: Km value for pentosidine (free form)
  Km: 70 µM
[2]; 37° C., FIG. 7
  pH of highest activity: 7.5 pH
[3]
  pentosidine oxidizing activity: exhibits pentosidine oxidizing activity
